Assay [1] addresses E2 ectodomain of HCV strain 1a142 (hepatitis C virus (genotype 1a, strain 1a142)). The assay can be described thus: ELISA.
For assay [2], the target named is E2 ectodomain of HCV strain 1a116 (hepatitis C virus (genotype 1a, strain 1a116)).

B1: HEPC108 IgG (antibody, V domains shown)
VH: QVQLVQSGAEVKKPGSSVKVSCKASGDTFSSSAISWVRQAPGQGLEWMGGSIPIFGATKYAQKFQGRVTITTDKSTSTAYMELSSLRFEDTAVYYCARASIVNISGFVRFRFDSWGQGTLVTVSS
VL: DIQMTQSPSSLSASVGDRVTITCQASQDISNYLNWYQQKPGKAPKLLIYDVSNLEIGVPSRFSGSGSGTEFTLTINSLQPEDLATYFCQHYDDVPPVYTFGQGTSLEIK
As to B1, the fold weaker binding than HEPC74 and AR3C (ELISA) in assay [1] was 1.5 fold. In assay [2], this molecule returned an HCVpp neutralization IC50 (1a116 HCVpp, Huh7 cells) of 0.12 µg/mL.
